B1: Azoarcus group I ribozyme (parent)
chain: GUGCCUUGCGCCGGGAAACCACGCAAGGGAUGGUGUCAAAUUCGGCGAAACCUAAGCGCCCGCCCGGGCGUAUGGCAACGCCGAGCCAAGCUUCGGCGCCUGCGCCGAUGAAGGUGUAGAGACUAGACGGCACCCACCUAAGGCAAACGCUAUGGUGAAGGCAUAGUCCAGGGAGUGGCGAAAGUCACACAAACCGG

Variants of B1 are the subject of the data set. The data set can be described thus: reverse-splicing fitness (ratio to wild type); higher = more active; in vitro selection; Mg2+ level not given. The method in brief: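 An in vitro group I ribozyme library with randomized positions was T7-transcribed and gel-purified. In triplicate, 10 pmol RNA in EPPS pH 7.5 was reacted with 50 pmoles of a 30-nt RNA substrate for 1 h at 37 °C across several added MgCl2 levels (1–48 mM), then stopped with EDTA. Products were reverse transcribed from a substrate-complementary primer, PCR-amplified and sequenced (HiSeq 4000). Fitness is a variant's read proportion after selection over that before, normalised to wild type.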
As for A111G A120U A145U C150G U176C, the reverse-splicing fitness came to 0.0298.
Take A111G A120U A145U C150G U176A: the reverse-splicing fitness stood at 0.0157.
On to A111G A120U C169G U176G, for which the reverse-splicing fitness was 0.00198.
For the variant A111G A120U C169G U176C, the reverse-splicing fitness came to 0.0228.
Consider A111G A120U C169G U176A, for which the reverse-splicing fitness was determined as 0.0109.
Take A111G A120U C150U C169G U176A: the reverse-splicing fitness is 0.0102.
Regarding A111G A120U C150U C169G U176C, the reverse-splicing fitness came out at 0.0106.
To A111G A120U C150U C169G U176G belongs 0.00215.
In the case of A111G A120U A145C C150G C169A U176C it was 0.00245; in that of A111G A120U A145C C150G C169A U176A, 0.00204; in that of A111G A120U A145C C150G C169A U176G, 0.00216.
To A111G A145C belongs 0.876.
As for A111G A145G, the reverse-splicing fitness is 0.9.
For the variant A111G A120U A145G C169U U176G, the reverse-splicing fitness came to 0.0035.
In the case of A111G A120U A145G C169U U176C it was 0.0414.
Take A111G A120U A145G C169U U176A: the reverse-splicing fitness was determined as 0.0227.
Consider A111G A120U C150U, for which the reverse-splicing fitness stood at 0.538.
To A111G A120U C150A belongs 0.112; to A111G A120U C150G, 0.0688; to A111G A120U A145G C150A C169A, 0.00596.
For A111G A120U A145G C150A C169U, the reverse-splicing fitness came to 0.0188.
A111G A120U A145G C150A C169G: the reverse-splicing fitness was 0.0141.
To A111G A120U A145C C150U U176A belongs 0.0932; to A111G A120U A145C C150U U176G, 0.0448.
For the variant A111G A120U A145C C150U U176C, the reverse-splicing fitness amounted to 0.055.
Consider A111G A120U A145U C150U C169A U176G, for which the reverse-splicing fitness stood at 0.00175.
For A111G A120U A145U C150U C169A U176C, the reverse-splicing fitness came out at 0.0026.
A111G A120U A145U C150U C169A U176A: the reverse-splicing fitness was determined as 0.00375.
In the case of A111G A120U A145G C150U U176A it was 0.237; in that of A111G A120U A145G C150U U176C, 0.285; in that of A111G A120U A145G C150U U176G, 0.0427.
To A111G A120U A145U C150G C169A U176A belongs 0.00281.
On to A111G A120U A145U C150G C169A U176G, for which the reverse-splicing fitness amounted to 0.0022.
For the variant A111G A120U A145U C150G C169A U176C, the reverse-splicing fitness was determined as 0.00355.
In the case of A111G A120U A145U C150G C169U U176G it was 0.00216; in that of A111G A120U A145U C150G C169U U176A, 0.00269.
In the case of A111G A120U A145U C150G C169U U176C it was 0.00372; in that of A111G A120U A145G C150U C169G U176C, 0.0118; in that of A111G A120U A145G C150U C169G U176A, 0.0113.
To A111G A120U A145G C150U C169G U176G belongs 0.00263.
Consider A111G A145C C150A C169U U176A, for which the reverse-splicing fitness was 0.0152.
To A111G A145C C150A C169U U176C belongs 0.0113; to A111G A145C C150A C169U U176G, 0.00473.
In the case of A111G A120U A145C C150U C169A U176A it was 0.00259; in that of A111G A120U A145C C150U C169A U176C, 0.00228.
To A111G A120U A145C C150U C169A U176G belongs 0.00196; to A111G A120U A145U C169A, 0.00636.
Consider A111G A120U A145U C169U, for which the reverse-splicing fitness stood at 0.122.
To A111G A120U A145U C169G belongs 0.0912; to A111G A120U A145U C150U C169U U176C, 0.0168.
As to A111G A120U A145U C150U C169U U176G, the reverse-splicing fitness was found to be 0.00321.
A111G A120U A145U C150U C169U U176A: the reverse-splicing fitness is 0.0131.
In the case of A111G A120U C150G U176G, the reverse-splicing fitness was found to be 0.00318.
Regarding A111G A120U C150G U176A, the reverse-splicing fitness was 0.0102.
For A111G A120U C150G U176C, the reverse-splicing fitness was 0.0248.
Regarding A111G A120U A145U U176G, the reverse-splicing fitness worked out at 0.15.
To A111G A120U A145U U176A belongs 0.364; to A111G A120U A145U U176C, 0.431.
Turning to A111G A120U C150U C169G, the reverse-splicing fitness was 0.0472.
Regarding A111G A120U C150U C169U, the reverse-splicing fitness was found to be 0.0666.
Regarding A111G A120U C150U C169A, the reverse-splicing fitness was determined as 0.00587.
In the case of A111G A120G C169G it was 0.321.
A111G A120G C169U: the reverse-splicing fitness is 0.236.
In the case of A111G A120U A145C C150A C169A U176A it was 0.00282.
To A111G A120U A145C C150A C169A U176G belongs 0.00177; to A111G A120U A145C C150A C169A U176C, 0.00206.
In the case of A111G A120U it was 0.785; in that of A111G A120G C169A U176G, 0.00449; in that of A111G A145C C169A, 0.0493.
Take A111G A145C C169U: the reverse-splicing fitness stood at 0.188.
In the case of A111G A145C C169G it was 0.116.
In the case of A111G A120U C150A C169A U176A it was 0.00442; in that of A111G A120U C150A C169A U176G, 0.00195.
With A111G A120U C150A C169A U176C, the reverse-splicing fitness was determined as 0.00292.
With A111G A120U C150A C169G U176G, the reverse-splicing fitness came out at 0.00211.
To A111G A120U C150A C169G U176A belongs 0.00675; to A111G A120U C150A C169G U176C, 0.00454; to A111G A145C C150A C169A U176G, 0.00629.
To A111G A145C C150A C169A U176C belongs 0.00515; to A111G A145C C150A C169A U176A, 0.0101; to A111G A120U A145U C150G C169G, 0.0082.
For the variant A111G A120U A145U C150G C169U, the reverse-splicing fitness came to 0.012.
To A111G A120U A145U C150G C169A belongs 0.00344.
With A111G A120U A145U C150U U176A, the reverse-splicing fitness worked out at 0.265.

The values are drawn from the RNAGym collection of RNA variant scans (doi:10.1093/molbev/msab373).
